For orientation: Kd means the constant that tells how readily two partners part at equilibrium. Low readings indicate higher affinity, high ones lower affinity.

In patent US20260049138A1 one finds KD ratio to GLS3000 and Kd data, which are given here for 7 molecules.

First the molecules themselves.
B1: GLS3000 H27dT (antibody, name in Kabat numbering, V domains shown)
VH: QVQLVESGGGVVQPGRSLRLSCAASGFTFSNAWMHWVRQAPGKGLEWVAQIKAKSNNYATYYAESVKGRFTISRDDSKNSLYLQMNSLKTEDTAVYYCRYVHYGAYYGVDAWGQGTTVTVSS
VL: DIVMTQSPLSLPVTPGEPASISCRSSQSLVTSNRNTYLHWYQQKPGQAPRLLIYKVSNRFSGVPDRFSGSGSGTDFTLKISRVEAEDVGVYYCGQGTQVPYTFGQGTKLEIK
B2: GLS3000 G91S (antibody, name in Kabat numbering, V domains shown)
VH: QVQLVESGGGVVQPGRSLRLSCAASGFTFSNAWMHWVRQAPGKGLEWVAQIKAKSNNYATYYAESVKGRFTISRDDSKNSLYLQMNSLKTEDTAVYYCRYVHYGAYYGVDAWGQGTTVTVSS
VL: DIVMTQSPLSLPVTPGEPASISCRSSQSLVHSNRNTYLHWYQQKPGQAPRLLIYKVSNRFSGVPDRFSGSGSGTDFTLKISRVEAEDVGVYYCGQSTQVPYTFGQGTKLEIK
B3: GLS3000 H27dV (antibody, name in Kabat numbering, V domains shown)
VH: QVQLVESGGGVVQPGRSLRLSCAASGFTFSNAWMHWVRQAPGKGLEWVAQIKAKSNNYATYYAESVKGRFTISRDDSKNSLYLQMNSLKTEDTAVYYCRYVHYGAYYGVDAWGQGTTVTVSS
VL: DIVMTQSPLSLPVTPGEPASISCRSSQSLVVSNRNTYLHWYQQKPGQAPRLLIYKVSNRFSGVPDRFSGSGSGTDFTLKISRVEAEDVGVYYCGQGTQVPYTFGQGTKLEIK
B4: GLS3000 H34R (antibody, name in Kabat numbering, V domains shown)
VH: QVQLVESGGGVVQPGRSLRLSCAASGFTFSNAWMHWVRQAPGKGLEWVAQIKAKSNNYATYYAESVKGRFTISRDDSKNSLYLQMNSLKTEDTAVYYCRYVHYGAYYGVDAWGQGTTVTVSS
VL: DIVMTQSPLSLPVTPGEPASISCRSSQSLVHSNRNTYLRWYQQKPGQAPRLLIYKVSNRFSGVPDRFSGSGSGTDFTLKISRVEAEDVGVYYCGQGTQVPYTFGQGTKLEIK
B5: GLS3000 N28D (antibody, name in Kabat numbering, V domains shown)
VH: QVQLVESGGGVVQPGRSLRLSCAASGFTFSNAWMHWVRQAPGKGLEWVAQIKAKSNNYATYYAESVKGRFTISRDDSKNSLYLQMNSLKTEDTAVYYCRYVHYGAYYGVDAWGQGTTVTVSS
VL: DIVMTQSPLSLPVTPGEPASISCRSSQSLVHSDRNTYLHWYQQKPGQAPRLLIYKVSNRFSGVPDRFSGSGSGTDFTLKISRVEAEDVGVYYCGQGTQVPYTFGQGTKLEIK
B6: GLS3000 G89R (antibody, name in Kabat numbering, V domains shown)
VH: QVQLVESGGGVVQPGRSLRLSCAASGFTFSNAWMHWVRQAPGKGLEWVAQIKAKSNNYATYYAESVKGRFTISRDDSKNSLYLQMNSLKTEDTAVYYCRYVHYGAYYGVDAWGQGTTVTVSS
VL: DIVMTQSPLSLPVTPGEPASISCRSSQSLVHSNRNTYLHWYQQKPGQAPRLLIYKVSNRFSGVPDRFSGSGSGTDFTLKISRVEAEDVGVYYCRQGTQVPYTFGQGTKLEIK
B7: CE115_M (antibody, V domains shown)
VH: EVQLVETGGSLVQPGKSLKLTCATSGFTFSNAWMHWVRQSPEKQLEWVAQIKAKSNNYATYYAESVKGRFTISRDDSKSNIYLQMNSLKEEDTAVYYCRYVHYGAYYGVDAWGQGTSVTVSS
VL: DVVMTQTPVSMSVSLGGQVSISCRSSQSLVHNNGNTYVSWYIQKPSQSPQLLIYKVSNRFSGISDRFSGSGSGTDFTLKISRVEPDDLGVYYCGQGTQDPYTFGAGTKLELK

CD3ε homodimer protein (human), sequence (P07766 23-126 limits assumed): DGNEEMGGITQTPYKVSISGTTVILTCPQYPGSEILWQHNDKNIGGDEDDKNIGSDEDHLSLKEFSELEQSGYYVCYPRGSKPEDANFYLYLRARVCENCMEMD

One test addresses CD3ε homodimer protein (human) (UniProt P07766). Description: SPR. A general note: In SPR one partner is held on a chip, and binding of the other changes the refractive index at the surface.
With B1, the KD ratio to GLS3000 is 13000.
For B2, the KD ratio to GLS3000 is 72100.
B3: the KD ratio to GLS3000 amounted to 354.
Same read-out and setting: the result for B4 reads 85800; that for B5, 4460.
The same measure, in the same setting: the result for B6 reads 4130.

The next test concerns the target biotinylated CD3ε epitope peptide. Description: SPR, Biacore T100, biotinylated CD3ε epitope peptide on CM5 via streptavidin, antibody as analyte.
B7: the Kd was 67 nM.
